Measured values reported in patent US9073997B2, “Growth factor antagonists for organ transplant alloimmunity and arteriosclerosis” (VEGENICS PTY LIMITED, priority 2007, dated 2015).

Tests used:
VEGF-C 109 = biological target: T1, VEGF-C 109 (Homo sapiens, UniProt P49767); assay: Receptor fragment/Fc fusion ligand precipitation binding assay, VEGF-C 109; details: tritiated VEGF-C 109 precipitated, analysis of PAGE gels
T1 construct: fragments with 109 residues each (called VEGF-A 109 and VEGF-C 109); His6 (C); made in house; host or cells: 293T cells (labelled supernatant)
T1 sequence (P49767 with tags, fused parts or gaps): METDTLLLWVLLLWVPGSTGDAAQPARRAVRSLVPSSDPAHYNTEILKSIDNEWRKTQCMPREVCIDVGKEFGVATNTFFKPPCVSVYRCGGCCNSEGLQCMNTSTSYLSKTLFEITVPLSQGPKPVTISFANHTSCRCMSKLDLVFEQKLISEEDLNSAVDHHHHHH
From the text: (§1) The binding assays utilized minimal VEGF-A (SEQ ID NOS: 106 and 107) and VEGF-C (SEQ ID NOS: 108 and 109) fragments with 109 residues each (called VEGF-A 109 and VEGF-C 109). These constructs are not naturally occurring, but are effective for binding assays. Other growth factor constructs, either natural or artificial, may also be used for performing these assays.
(§2) Either Tritiated VEGF-A 109 or VEGF-C 109 was used in a given binding experiment. Ligand in solution was precipitated by mixing […] of ligand solution with 100 μl binding mix at 4° C. overnight, with agitation. The ligand solution may be the supernatant of metabolically labeled 293T cells. The binding mixes used for the receptor binding analysis were as follows: for VEGFR-1 binding assays, the binding mix was phosphate buffered saline (PBS) containing 1.5% BSA, 0.06% Tween 20, 3 μg/ml heparin and 400 ng/ml VEGFR-1-Fc fusion protein (100 μl of this binding mix was added to 200 μl of ligand solution). For VEGFR-2 binding assays, the binding mix was 82% conditioned cell supernatant from 293T cells transiently expressing VEGFR-2-Fc fusion protein in mixture with 18% of a PBS solution that contained 5% BSA, 0.2% Tween 20, and 10 μg/ml heparin (250 μl of binding mix was added to 200 μl of ligand solution). For VEGFR-3 binding assays, the binding mix was 82% conditioned cell supernatant from 293T cells transiently expressing VEGFR-3-Fc fusion protein, 18% of PBS containing 5% BSA, 0.2% Tween 20, and 10 μg/ml heparin (250 μl of binding mix was added to 200 μl of ligand solution). To collect precipitated ligand, 50 μl of a 30% protein A sepharose (PAS, Pharmacia) slurry in PBS was added and incubated under agitation for at least 1.5 hr at 4° C. Standard buffer was added to each immunoprecipitation sample and boiled for 5 minutes at 95° C. during which the immunopreciptated proteins become dissociated from the protein A sepharose. After centrifugation, 10 μl of each sample was analyzed on 15% SDS-PAGE under reducing conditions. The gels were dried and exposed for either 12 hours on phosphorimager plates or 4 weeks on X-ray film.
(§3) Tables 3 and 4 identify constructs by name, a DNA and deduced amino acid sequence from the sequence listing, the portion of VEGFR-2 (SEQ ID NO: 4) or VEGFR-3 (SEQ ID NO: 6) amino acid sequence that was included in the constructs, whether the constructs expressed, and, if tested, whether constructs bound ligand. The table data is compiled from analysis of PAGE gels. The asterisk adjacent to the “B*” indicates a “spill-over” from the adjacent lane, as the origin of the bands seen in the “B” lane. A failure to express under the particular experimental conditions used in this instance should not be interpreted as a failure to bind. The experiments can be repeated using different receptor fragments, binding constructs, ligands, or combinations thereof.

VEGF-A 109 = biological target: T2, VEGF-A 109 (Homo sapiens, UniProt P15692); assay: Receptor fragment/Fc fusion ligand precipitation binding assay, VEGF-A 109; details: VEGFR-2 Fc fusion constructs; tritiated VEGF-A 109 precipitated, analysis of PAGE gels
T2 construct: fragments with 109 residues each (called VEGF-A 109 and VEGF-C 109); His6 (C); made in house; host or cells: 293T cells (labelled supernatant)
T2 sequence (P15692 with tags, fused parts or gaps): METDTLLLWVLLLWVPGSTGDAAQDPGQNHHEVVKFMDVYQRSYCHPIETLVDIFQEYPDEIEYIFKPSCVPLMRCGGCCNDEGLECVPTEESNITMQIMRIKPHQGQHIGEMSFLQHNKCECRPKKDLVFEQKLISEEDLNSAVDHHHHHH
From the text: as §1, §2, §3

[1] = test system: mature VEGF-C, full-length VEGF-C; assay: Ligand binding analysis of chimeric VEGF receptor/hIgG1Fc fusions, VEGF-C; parameters: species or system human; details: 35S-labeled mature and full-length VEGF-C precipitated with conditioned medium of 293T cells, SDS-PAGE
Protocol: (§4) For expression analysis, the two new chimeric VEGF receptors and control constructs expressing R-1D1-3/hIgG1Fc, R-2D1-3/hIgG1Fc, R-3D1-3/hIgG1Fc, mature VEGF-C and VEGF-A165 were transiently transfected into 293T cells using JetPEI (QBioGene/MP Biomedicals, Irvine, Calif.). Metabolic labeling with ^35S-methionine and ^35S-cysteine was carried out at 48 hours post-transfection and labeling maintained for 24 hours. The serum-free conditioned medium was then immunoprecipitated using Protein A sepharose and either: a) specific antiserum against human mature VEGF-C; b) goat polyclonal antibody against human VEGF-A (R&D systems, Minneapolis, Minn.); or, c) serum-free medium of 293T cells taken 48 to 72 hours post-transient transfection with VEGF receptor/hIgG1Fc proteins (control proteins, R-1D1-3, R-2D1-3, R-3D1-3; chimeric proteins, R-3D1-R2D2+3 and R-3D1-R2D2-R1D3).
(§5) The immunoprecipitated fractions were analyzed on 17% SDS-PAGE and the dried gels were exposed for 12 hours on phosphoimager plates or 36 hours on X-ray films.
(§6) Ligand binding analysis was performed as described for the VEGF-C/VEGF-A hybrid growth factors in Example 1. Briefly, the unlabeled conditioned medium of transiently transfected 293T cells expressing the chimeric VEGFR/IgG1Fc fusion proteins was used to precipitate the ^35S metabolically labeled mature VEGF-C, full-length VEGF-C, and VEGF-A165.

VEGF-A165 = biological target: T3, VEGF-A165 (Homo sapiens, UniProt P15692); assay: Ligand binding analysis of chimeric VEGF receptor/hIgG1Fc fusions, VEGF-A165; details: for binding to VEGF-A: 35S-labeled VEGF-A165 precipitated with conditioned medium of 293T cells, SDS-PAGE
T3 construct: made in house; host or cells: 293T cells, transient transfection, 35S-labelled conditioned medium
T3 sequence (P15692 27-191 isoform P15692-4): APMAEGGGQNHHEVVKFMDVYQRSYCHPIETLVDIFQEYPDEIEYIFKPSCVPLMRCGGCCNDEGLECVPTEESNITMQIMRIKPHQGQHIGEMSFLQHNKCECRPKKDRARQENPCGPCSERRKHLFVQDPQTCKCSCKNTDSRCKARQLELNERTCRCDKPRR
Protocol: as §4, §5, §6

Chain of mature VEGF-C, full-length VEGF-C (P49767 112-227 limits assumed): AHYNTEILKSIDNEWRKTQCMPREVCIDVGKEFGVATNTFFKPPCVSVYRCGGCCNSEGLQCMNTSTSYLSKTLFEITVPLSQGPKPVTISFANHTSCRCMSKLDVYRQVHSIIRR

Substance | Binds VEGF-C (VEGF-C 109; VEGFR-2 Fc fusion constructs) | Binds VEGF-A (VEGF-A 109) | Binds VEGF-C (VEGF-C 109; VEGFR-3 Fc fusion constructs) | also measured
R-2 A: Fc fusion of VEGFR-2 (SEQ ID NO: 4) residues 24-326 with CD33 signal peptide; SEQ ID NOS: 7 and 8 | Yes | Yes | – | –
R-2 C: Fc fusion of VEGFR-2 residues 24-226 with CD33 signal peptide; SEQ ID NOS: 11 and 12 | No | No | – | –
R-2 F: Fc fusion of VEGFR-2 residues 24-122 with CD33 signal peptide; SEQ ID NOS: 17 and 18 | No | No | – | –
R-2 I: Fc fusion of VEGFR-2 residues 118-226 with CD33 signal peptide; SEQ ID NOS: 23 and 24 | Weak | No | – | –
R-2 J: Fc fusion of VEGFR-2 residues 118-232 with CD33 signal peptide; SEQ ID NOS: 25 and 26 | Very | No | – | –
R-2 L: Fc fusion of VEGFR-2 residues 220-326 with CD33 signal peptide; SEQ ID NOS: 29 and 30 | No | No | – | –
R-3 C: Fc fusion of VEGFR-3 residues 1-229; SEQ ID NOS: 35 and 36 | – | – | Yes | –
R-3 H: Fc fusion of VEGFR-3 residues 1-134; SEQ ID NOS: 45 and 46 | – | – | No | –
R-3 J: Fc fusion of VEGFR-3 residues 1-39, 132-247; SEQ ID NOS: 49 and 50 | – | – | No | –
R-3 K: Fc fusion of VEGFR-3 residues 1-39, 132-229; SEQ ID NOS: 51 and 52 | – | – | No | –
R-3D1-R2D2+3/Ig: chimeric hIgG1Fc fusion: first Ig-like domain of VEGFR-3 and second and third Ig-like domains of VEGFR-2; SEQ ID NO: 125 | – | – | – | binding to VEGF-C [1]: exhibited binding; binding to VEGF-A (VEGF-A165): not VEGF-A; binding to VEGF-A, second experiment (VEGF-A165; second experiment, 35S-labeled VEGF-A165, SDS-PAGE): only weak binding
R-3D1-R2D2-R1D3/Ig: chimeric hIgG1Fc fusion: first Ig-like domain of VEGFR-3, second of VEGFR-2, third of VEGFR-1; SEQ ID NO: 128 | – | – | – | binding to VEGF-C [1]: strongly bound; binding to VEGF-A (VEGF-A165): strongly bound

Second part, led by results:

Binds VEGF-C (VEGF-C 109; VEGFR-2 Fc fusion constructs) | Binds VEGF-A (VEGF-A 109) | Binds VEGF-C (VEGF-C 109; VEGFR-3 Fc fusion constructs) | Substance | also measured
No | No | – | R-2 B: Fc fusion of VEGFR-2 residues 24-220 with CD33 signal peptide; SEQ ID NOS: 9 and 10 | –
No | No | – | R-2 D: Fc fusion of VEGFR-2 residues 24-232 with CD33 signal peptide; SEQ ID NOS: 13 and 14 | –
No | No | – | R-2 E: Fc fusion of VEGFR-2 residues 24-241 with CD33 signal peptide; SEQ ID NOS: 15 and 16 | –
Yes | Yes | – | R-2 G: Fc fusion of VEGFR-2 residues 118-326 with CD33 signal peptide; SEQ ID NOS: 19 and 20 | –
Yes | No | – | R-2 H: Fc fusion of VEGFR-2 residues 118-220 with CD33 signal peptide; SEQ ID NOS: 21 and 22 | Binds VEGF-C (VEGF-C 109; VEGFR-2 Fc fusion constructs, listed as R-2H): sufficient for VEGF-C binding
No | No | – | R-2 K: Fc fusion of VEGFR-2 residues 118-241 with CD33 signal peptide; SEQ ID NOS: 27 and 28 | –
– | – | Yes | R-3 B: Fc fusion of VEGFR-3 residues 138-226 with CD33 signal peptide; SEQ ID NOS: 33 and 34 | –
– | – | Yes | R-3 D: Fc fusion of VEGFR-3 residues 1-226; SEQ ID NOS: 37 and 38 | –
– | – | Yes | R-3 G: Fc fusion of VEGFR-3 residues 1-329 (D1-3); SEQ ID NOS: 43 and 44 | –
– | – | No | R-3 I: Fc fusion of VEGFR-3 residues 1-39, 132-329; SEQ ID NOS: 47 and 48 | –
